Data on 17 molecules can be found in article PMC11509546, “The Antioxidant Effects of Trypsin-Hydrolysate Derived from Abalone Viscera and Fishery By-Products, and the Angiotensin-I Converting Enzyme (ACE) Inhibitory Activity of Its Purified Bioactive Peptides” (Marine Drugs, 2024).

Where a SMILES comes first, the peptide text is derived from it.

Angiotensin-I converting enzyme, sequence (P12821 30-1256): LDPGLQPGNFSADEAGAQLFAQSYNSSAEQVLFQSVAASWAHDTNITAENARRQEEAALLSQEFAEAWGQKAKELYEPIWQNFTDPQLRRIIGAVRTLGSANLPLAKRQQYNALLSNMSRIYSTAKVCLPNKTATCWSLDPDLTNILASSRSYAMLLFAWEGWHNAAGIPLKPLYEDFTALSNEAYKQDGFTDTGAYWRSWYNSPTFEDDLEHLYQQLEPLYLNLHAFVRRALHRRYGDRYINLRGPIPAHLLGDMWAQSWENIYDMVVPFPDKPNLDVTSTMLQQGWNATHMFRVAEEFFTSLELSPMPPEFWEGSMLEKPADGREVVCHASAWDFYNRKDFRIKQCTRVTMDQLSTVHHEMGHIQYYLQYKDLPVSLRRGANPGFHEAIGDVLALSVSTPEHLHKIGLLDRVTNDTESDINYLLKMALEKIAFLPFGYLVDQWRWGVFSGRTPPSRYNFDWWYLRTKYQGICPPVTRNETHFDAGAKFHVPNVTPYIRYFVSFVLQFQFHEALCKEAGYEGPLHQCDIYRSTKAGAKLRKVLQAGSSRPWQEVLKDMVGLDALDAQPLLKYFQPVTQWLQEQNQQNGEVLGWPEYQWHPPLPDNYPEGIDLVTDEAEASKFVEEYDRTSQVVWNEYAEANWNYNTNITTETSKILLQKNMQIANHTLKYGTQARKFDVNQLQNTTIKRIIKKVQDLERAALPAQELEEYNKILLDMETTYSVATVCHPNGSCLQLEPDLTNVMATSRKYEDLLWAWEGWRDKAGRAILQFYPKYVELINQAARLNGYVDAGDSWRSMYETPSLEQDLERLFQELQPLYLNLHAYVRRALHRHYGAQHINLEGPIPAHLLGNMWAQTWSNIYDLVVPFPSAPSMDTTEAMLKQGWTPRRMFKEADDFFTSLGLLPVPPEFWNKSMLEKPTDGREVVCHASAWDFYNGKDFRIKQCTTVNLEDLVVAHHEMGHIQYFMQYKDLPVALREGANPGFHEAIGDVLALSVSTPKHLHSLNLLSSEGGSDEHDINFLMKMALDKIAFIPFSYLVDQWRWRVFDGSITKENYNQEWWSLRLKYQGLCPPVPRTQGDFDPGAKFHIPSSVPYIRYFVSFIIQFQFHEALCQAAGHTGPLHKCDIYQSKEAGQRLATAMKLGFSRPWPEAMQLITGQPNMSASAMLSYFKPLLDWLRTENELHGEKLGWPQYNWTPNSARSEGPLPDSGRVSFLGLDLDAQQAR

The target in one experiment is T1, Angiotensin-I converting enzyme (ACE) (Homo sapiens, UniProt P12821).
T1 construct: purchased Dojindo Inc., Kumamoto, Japan ACE kit-WST
T1 sequence (P12821 30-1306, species assumed): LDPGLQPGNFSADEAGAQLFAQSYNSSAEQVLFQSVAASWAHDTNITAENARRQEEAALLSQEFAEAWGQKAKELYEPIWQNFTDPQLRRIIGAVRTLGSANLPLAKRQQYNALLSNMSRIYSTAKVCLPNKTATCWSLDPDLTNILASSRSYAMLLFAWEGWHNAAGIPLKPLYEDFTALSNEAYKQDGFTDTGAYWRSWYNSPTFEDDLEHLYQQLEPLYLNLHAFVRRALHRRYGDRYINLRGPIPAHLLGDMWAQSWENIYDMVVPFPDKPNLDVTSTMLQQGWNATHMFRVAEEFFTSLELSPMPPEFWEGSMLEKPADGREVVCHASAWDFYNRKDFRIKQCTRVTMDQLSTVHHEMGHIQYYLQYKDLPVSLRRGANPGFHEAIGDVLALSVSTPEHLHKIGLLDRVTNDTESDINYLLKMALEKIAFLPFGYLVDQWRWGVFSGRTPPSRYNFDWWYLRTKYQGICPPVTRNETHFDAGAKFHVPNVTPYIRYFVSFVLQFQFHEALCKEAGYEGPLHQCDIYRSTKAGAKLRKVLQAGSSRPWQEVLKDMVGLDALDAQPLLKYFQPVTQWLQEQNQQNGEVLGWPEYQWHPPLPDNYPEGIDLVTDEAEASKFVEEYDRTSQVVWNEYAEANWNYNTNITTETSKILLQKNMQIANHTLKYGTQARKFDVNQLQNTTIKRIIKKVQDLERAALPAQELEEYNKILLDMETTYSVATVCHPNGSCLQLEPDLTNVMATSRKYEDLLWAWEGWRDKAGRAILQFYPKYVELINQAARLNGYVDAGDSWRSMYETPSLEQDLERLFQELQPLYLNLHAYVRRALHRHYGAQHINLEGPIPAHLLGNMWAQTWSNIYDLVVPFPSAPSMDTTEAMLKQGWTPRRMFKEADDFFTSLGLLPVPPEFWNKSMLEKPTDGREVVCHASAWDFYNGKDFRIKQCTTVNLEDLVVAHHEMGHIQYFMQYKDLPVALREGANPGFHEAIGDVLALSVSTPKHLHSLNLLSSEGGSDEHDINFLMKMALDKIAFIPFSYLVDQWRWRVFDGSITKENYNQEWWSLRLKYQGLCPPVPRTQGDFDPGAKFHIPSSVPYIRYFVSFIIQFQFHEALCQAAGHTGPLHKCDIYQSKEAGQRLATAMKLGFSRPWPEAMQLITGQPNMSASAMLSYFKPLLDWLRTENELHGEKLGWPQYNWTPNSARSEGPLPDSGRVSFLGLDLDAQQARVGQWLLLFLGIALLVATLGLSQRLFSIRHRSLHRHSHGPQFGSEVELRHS
Briefly: ACE inhibition activity assay (ACE kit-WST, colorimetric). It is filed as biochemical. Particulars: 3-hydroxybutyryl-Gly-Gly-Gly substrate, mean ± SD of triplicate, read-out: ACE Inhibitory Activity IC50 Value (converted). On the procedure: ACE inhibitory activity was determined as previously described. Inhibition was measured using an ACE kit-WST (Dojindo Inc., Kumamoto, Japan), a colorimetric method. Briefly, the inhibitory effect was determined using enzyme activity and the amount of 3-hydroxybutyric acid made from 3-hydroxybutyryl-Gly-Gly-Gly.
One may read the IC50 as the point on the concentration scale where inhibition reaches its midpoint. Consider `CC(C)C[C@H](N)C(=O)N[C@@H](CC(=O)O)C(=O)N[C@@H](Cc1c[nH]c2ccccc12)C(=O)O` [LDW] (H-Leu-Asp-Trp-OH), for which the IC50 was over 2310 µM.

Consider `CC(C)C[C@H](N)C(=O)NCC(=O)N[C@@H](CCC(=O)O)C(=O)N[C@@H](Cc1c[nH]c2ccccc12)C(=O)O` [LGEW] (H-LGEW-OH), for which the IC50 was 328 µM.

`CC(C)C[C@H](N)C(=O)NCC(=O)N1CCC[C@H]1C(=O)N[C@@H](Cc1ccc(O)cc1)C(=O)O` [LGPY] (H-LGPY-OH): the IC50 is over 2230 µM.

Take `CC(C)C[C@H](NC(=O)[C@@H](N)CC(N)=O)C(=O)NCC(=O)N[C@@H](CCC(=O)O)C(=O)N[C@@H](Cc1c[nH]c2ccccc12)C(=O)O` [NLGEW] (H-NLGEW-OH): the half-inhibitory concentration (IC50) is 236 µM.

For `N=C(N)NCCC[C@H](NC(=O)[C@H](CCC(=O)O)NC(=O)[C@H](Cc1ccc(O)cc1)NC(=O)[C@@H](N)CC(N)=O)C(=O)O` [NYER] (H-NYER-OH), the IC50 was 184 µM.

Regarding `CC(C)C[C@H](NC(=O)[C@@H](N)CCC(N)=O)C(=O)N[C@@H](CCC(N)=O)C(=O)N[C@@H](Cc1ccccc1)C(=O)N1CCC[C@H]1C(=O)N[C@H](C(=O)NCC(=O)N[C@@H](CCCNC(=N)N)C(=O)O)C(C)C` [QLQFPVGR] (H-QLQFPVGR-OH), the concentration for half-maximal inhibition (IC50) is 4.24 µM.

Turning to `CC(C)[C@H](N)C(=O)N[C@@H](C)C(=O)N[C@@H](CCCNC(=N)N)C(=O)O` [VAR] (H-Val-Ala-Arg-OH), the IC50 was 302 µM.

As for `CC(C)C[C@H](NC(=O)CNC(=O)[C@@H]1CCCN1C(=O)[C@@H](NC(=O)[C@@H](N)C(C)C)[C@@H](C)O)C(=O)N[C@@H](CCC(N)=O)C(=O)N[C@@H](Cc1ccc(O)cc1)C(=O)O` [VTPGLQY] (H-VTPGLQY-OH), the IC50 is 29.6 µM.

A further experiment concerns the target Angiotensin-I converting enzyme (UniProt P12821).
Experiment: not given
Conditions: not given
LDW (peptide) came in with an ACE inhibitory activity IC50 (ACE kit-WST, colorimetric enzyme activity assay) of over 1 mg/mL.

Molecule VAR (peptide) returned an ACE inhibitory activity IC50 (ACE kit-WST, colorimetric enzyme activity assay) of 0.104 mg/mL.

For the molecule NLGEW, the ACE inhibitory activity IC50 (ACE kit-WST, colorimetric enzyme activity assay) was determined as 0.146 mg/mL.

Turning to LGPY, the ACE inhibitory activity IC50 (ACE kit-WST, colorimetric enzyme activity assay) was over 1 mg/mL.

LGEW displayed an ACE inhibitory activity IC50 (ACE kit-WST, colorimetric enzyme activity assay) of 0.165 mg/mL.

As for QFPVGR, the ACE inhibitory activity IC50 (ACE kit-WST, colorimetric enzyme activity assay) worked out at 0.023 mg/mL.

The molecule VTPGLQY returned an ACE inhibitory activity IC50 (ACE kit-WST, colorimetric enzyme activity assay) of 0.023 mg/mL.

In the case of QLQFPVGR, the ACE inhibitory activity IC50 (ACE kit-WST, colorimetric enzyme activity assay) was found to be 0.004 mg/mL.

NYER had an ACE inhibitory activity IC50 (ACE kit-WST, colorimetric enzyme activity assay) of 0.107 mg/mL.
